Measured values published in the supplement of paper PMC6757056.
± gives the standard deviation of the averaged measurements.

B1: library; a variant is named by its letters at N, in order (parent)
chain: GCUGUCACCGGUGUAUUACCCUAGUGGUCGACCGGUCUGAUGAGUCUNNNNNNAGACGAAACAGC

How the values were obtained:
[1] = variants of: B1; assay: FACS-Seq fitted mean relative fluorescence mCherry/BFP without ligand (log10 relative fluorescence); ligand: hypoxanthine (xanthine aptamer); higher = higher reporter protein expression; conditions: HEK293T, ligand present: no
Outline: (§1)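 HEK293T libraries were lentivirally transduced with an mCherry reporter carrying the ribozyme switch and an EF1α-BFP marker, enriched, and incubated for 48 h with or without ligand before sorting into 6 bins by mCherry/BFP. Genomic DNA from each bin was PCR-amplified, barcoded and sequenced on MiSeq. Fluorescence is the fitted normal mean of the bin counts. The fit used log10(mCherry/BFP), and means were scaled to five spiked-in control ribozymes.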

[2] = variants of: B1; assay: normalized RNA/DNA level with ligand (relative to sTRSVctl = 100) (log10 (% of sTRSVctl)); ligand: hypoxanthine (xanthine aptamer); higher = less ribozyme self-cleavage, higher mRNA level; conditions: ligand concentration (+) RNA-Seq: 5 mM, HEK293T, reporter: mCherry (pCS4076), ligand present: yes
Outline: (§2)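 HEK293T cells received ligand, where used, 1 h before being transfected with 4 µg per 6-well well of library plasmids encoding reporter-linked ribozyme switches. After 72 h, RNA was extracted with EDTA and sequenced. RNA level was derived from RNA reads per DNA read, normalized to a spiked-in non-cleaving sequence or the top sequences, then scaled and log-transformed. Values were ×100 then log10, the top set was 25 sequences, and the minimum was 100 DNA reads.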

[3] = variants of: B1; assay: normalized RNA/DNA level without ligand (relative to sTRSVctl = 100) (log10 (% of sTRSVctl)); ligand: hypoxanthine (xanthine aptamer); higher = less ribozyme self-cleavage, higher mRNA level; conditions: HEK293T, reporter: mCherry (pCS4076), ligand present: no
Outline: as §2

[4] = variants of: B1; assay: FACS-Seq fitted mean relative fluorescence mCherry/BFP with ligand (log10 relative fluorescence); ligand: hypoxanthine (xanthine aptamer); ligand concentration (+) FACS-Seq: 5 mM; higher = higher reporter protein expression; conditions: HEK293T, ligand present: yes
Outline: as §1

| Variant | FACS-Seq fitted mean (log10) [1] | normalized RNA/DNA level with ligand (log10) [2] | normalized RNA/DNA level without ligand (log10) [3] | FACS-Seq fitted mean (log10) [4] |
| --- | --- | --- | --- | --- |
| UUUAUA | -0.64 ± 0.014 | 1.93 ± 0.024 | 1.849 ± 0.0039 | -0.329 ± 0.11 |
| UUUAUU | 0.761 ± 0.032 | 1.9334 ± 0.00045 | 1.86 ± 0.047 | 0.799 ± 0.067 |
| CAAGAU | – | 1.94 ± 0.048 | 1.76 ± 0.048 | – |
| CAAGAC | – | 1.9181 ± 0.0013 | 1.825 ± 0.015 | – |
| GUUGCA | 0.818 ± 0.056 | 1.918 ± 0.017 | 1.81 ± 0.021 | 0.698 ± 0.011 |
| UUUAAU | 0.485 ± 0.013 | 1.918 ± 0.01 | 1.856 ± 0.0057 | 0.421 ± 0.053 |
| GUUAUG | 0.223 ± 0.011 | 1.87 ± 0.039 | 1.46 ± 0.015 | 0.509 ± 0.01 |
| CAAUGA | – | 1.92 ± 0.038 | 1.82 ± 0.051 | – |
| CAAUGC | – | 1.95 ± 0.047 | 1.89 ± 0.029 | – |
| GAAGAU | – | 1.94 ± 0.035 | 1.8 ± 0.075 | – |
| UAAUAC | – | 1.929 ± 0.013 | 1.79 ± 0.026 | – |
| AAAUGU | – | 1.865 ± 0.013 | 1.633 ± 0.013 | – |
| AUUCGG | 0.175 ± 0.028 | 1.87 ± 0.021 | 1.46 ± 0.024 | 0.625 ± 0.014 |
| CAAGUG | – | 1.92 ± 0.026 | 1.81 ± 0.042 | – |
| CAAGUA | – | 1.89 ± 0.054 | 1.779 ± 0.011 | – |
| CAAGUU | – | 1.93 ± 0.021 | 1.939 ± 0.0037 | – |
| UAAUCC | – | 1.917 ± 0.015 | 1.84 ± 0.041 | – |
| UAAUCA | – | 1.955 ± 0.019 | 1.886 ± 0.0084 | – |
| AUUUUG | 0.224 ± 0.041 | 1.933 ± 0.0027 | 1.59 ± 0.083 | 0.466 ± 0.012 |
| AUUUUU | 0.433 ± 0.019 | 1.93 ± 0.054 | 1.88 ± 0.032 | 0.378 ± 0.044 |
| AUUAUA | 0.24 ± 0.022 | 1.928 ± 0.019 | 1.81 ± 0.028 | 0.402 ± 0.063 |
| AUUAUU | 0.5583 ± 0.0011 | 1.91 ± 0.0029 | 1.881 ± 0.011 | 0.668 ± 0.014 |
| AAACGC | – | 1.91 ± 0.063 | 1.68 ± 0.021 | – |
| AAAGUC | – | 1.98 ± 0.07 | 1.919 ± 0.0031 | – |

| Variant | FACS-Seq fitted mean (log10) [1] | normalized RNA/DNA level with ligand (log10) [2] | normalized RNA/DNA level without ligand (log10) [3] | FACS-Seq fitted mean (log10) [4] |
| --- | --- | --- | --- | --- |
| GUUUCC | 0.703 ± 0.042 | 1.95 ± 0.089 | 2.03 ± 0.06 | 0.641 ± 0.02 |
| UAAAUC | – | 1.93 ± 0.044 | 1.97 ± 0.028 | – |
| CAACGG | – | 1.85 ± 0.08 | 1.42 ± 0.043 | – |
| CAACGU | – | 1.963 ± 0.0077 | 1.89 ± 0.025 | – |
| CUUCCC | -0.199 ± 0.041 | 1.9 ± 0.021 | 1.9406 ± 0.0018 | 0.0439 ± 0.038 |
| GAAGUA | – | 1.88 ± 0.05 | 1.741 ± 0.0072 | – |
| GAAGUC | – | 1.97 ± 0.022 | 1.87 ± 0.035 | – |
| GUUAAU | 0.528 ± 0.024 | 1.9 ± 0.02 | 1.8 ± 0.067 | 0.566 ± 0.0099 |
| CAAUAG | – | 1.905 ± 0.0064 | 1.69 ± 0.03 | – |
| CAAUAU | – | 1.929 ± 0.016 | 1.811 ± 0.01 | – |
| AUUCUC | 0.8249 ± 0.0011 | 2.01 ± 0.033 | 1.96 ± 0.044 | 0.724 ± 0.063 |
| UUUUAU | 0.589 ± 0.097 | 1.96 ± 0.018 | 1.85 ± 0.06 | 0.296 ± 0.011 |
| AUUACG | 0.368 ± 0.015 | 1.84 ± 0.066 | 1.397 ± 0.00039 | 0.626 ± 0.068 |
| AUUACA | 0.157 ± 0.076 | 1.91 ± 0.033 | 1.776 ± 0.0047 | 0.407 ± 0.0063 |
| CAAUCA | – | 1.91 ± 0.069 | 1.77 ± 0.0087 | – |
| CAAUCU | – | 2.01 ± 0.059 | 1.85 ± 0.042 | – |
| CAAUCG | – | 1.98 ± 0.083 | 1.89 ± 0.019 | – |
| UAAUUG | – | 1.92 ± 0.051 | 1.74 ± 0.02 | – |
| CACACA | – | 1.9 ± 0.036 | 1.78 ± 0.037 | – |
| CAAGCU | – | 1.981 ± 0.0081 | 1.892 ± 0.003 | – |
| CAAGCG | – | 1.94 ± 0.037 | 1.82 ± 0.03 | – |
| CUUGCA | 0.834 ± 0.021 | 2.01 ± 0.023 | 1.87 ± 0.041 | 0.882 ± 0.079 |
| CUUGCU | 0.359 ± 0.037 | 2 ± 0.018 | 1.94 ± 0.097 | 0.458 ± 0.056 |
